US20180236024A1 (STC UNM, published 2018)

Assays:
ATG14L = biological target: T1, ATG14L (UniProt Q6ZNE5 1-492); assay: co-IP of Flag-IRGM and endogenous ATG14
T1 construct: also called endogenous ATG14

Beclin 1 = biological target: T2, Beclin 1 (UniProt Q14457 1-450); assay: co-immunoprecipitation, HEK293T lysates
T2 construct: Flag-tagged overexpressed or endogenous, depending on the experiment; also called Flag-Beclin 1; Flag-Beclin-1

NOD2 (full length) = biological target: T3, NOD2 (full length) (UniProt Q9HC29 1-1040); assay: co-IP, starved HT29 cells and HEK293T cells
T3 construct: also called Flag-NOD2; endogenous NOD2
T3 sequence (Q9HC29 whole entry): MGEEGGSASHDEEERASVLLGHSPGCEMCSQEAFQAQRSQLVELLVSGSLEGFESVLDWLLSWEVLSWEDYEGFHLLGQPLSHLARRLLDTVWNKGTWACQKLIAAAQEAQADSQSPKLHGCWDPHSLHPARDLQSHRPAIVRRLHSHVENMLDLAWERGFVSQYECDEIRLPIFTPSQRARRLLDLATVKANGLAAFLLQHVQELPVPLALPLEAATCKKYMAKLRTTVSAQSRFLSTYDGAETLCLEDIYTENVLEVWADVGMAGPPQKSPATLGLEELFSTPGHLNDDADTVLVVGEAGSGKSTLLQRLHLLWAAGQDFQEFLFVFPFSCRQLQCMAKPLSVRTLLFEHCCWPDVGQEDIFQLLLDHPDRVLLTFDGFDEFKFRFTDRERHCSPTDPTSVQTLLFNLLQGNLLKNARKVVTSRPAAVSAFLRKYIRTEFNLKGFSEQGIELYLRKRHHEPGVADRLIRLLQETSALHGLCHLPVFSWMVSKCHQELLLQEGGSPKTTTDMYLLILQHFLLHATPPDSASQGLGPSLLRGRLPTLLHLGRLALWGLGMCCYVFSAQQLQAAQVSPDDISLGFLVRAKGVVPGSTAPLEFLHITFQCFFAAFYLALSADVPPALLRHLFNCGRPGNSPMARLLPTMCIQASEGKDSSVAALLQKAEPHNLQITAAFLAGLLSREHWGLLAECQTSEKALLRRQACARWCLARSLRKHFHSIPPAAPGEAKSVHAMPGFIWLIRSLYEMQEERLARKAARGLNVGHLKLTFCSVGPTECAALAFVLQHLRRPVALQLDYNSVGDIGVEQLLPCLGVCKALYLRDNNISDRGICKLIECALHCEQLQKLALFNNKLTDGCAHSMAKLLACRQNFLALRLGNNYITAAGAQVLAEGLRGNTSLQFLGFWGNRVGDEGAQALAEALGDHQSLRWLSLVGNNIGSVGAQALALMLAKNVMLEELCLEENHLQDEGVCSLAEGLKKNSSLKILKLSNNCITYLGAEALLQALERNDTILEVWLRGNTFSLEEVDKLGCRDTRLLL

TLR3 = biological target: T4, TLR3 (UniProt O15455 24-904, limits assumed); assay: co-IP with anti-Flag, GFP-IRGM and Flag-TLR3
T4 construct: also called Flag-TLR3 (Addgene Plasmid 13084)
T4 sequence (looked up): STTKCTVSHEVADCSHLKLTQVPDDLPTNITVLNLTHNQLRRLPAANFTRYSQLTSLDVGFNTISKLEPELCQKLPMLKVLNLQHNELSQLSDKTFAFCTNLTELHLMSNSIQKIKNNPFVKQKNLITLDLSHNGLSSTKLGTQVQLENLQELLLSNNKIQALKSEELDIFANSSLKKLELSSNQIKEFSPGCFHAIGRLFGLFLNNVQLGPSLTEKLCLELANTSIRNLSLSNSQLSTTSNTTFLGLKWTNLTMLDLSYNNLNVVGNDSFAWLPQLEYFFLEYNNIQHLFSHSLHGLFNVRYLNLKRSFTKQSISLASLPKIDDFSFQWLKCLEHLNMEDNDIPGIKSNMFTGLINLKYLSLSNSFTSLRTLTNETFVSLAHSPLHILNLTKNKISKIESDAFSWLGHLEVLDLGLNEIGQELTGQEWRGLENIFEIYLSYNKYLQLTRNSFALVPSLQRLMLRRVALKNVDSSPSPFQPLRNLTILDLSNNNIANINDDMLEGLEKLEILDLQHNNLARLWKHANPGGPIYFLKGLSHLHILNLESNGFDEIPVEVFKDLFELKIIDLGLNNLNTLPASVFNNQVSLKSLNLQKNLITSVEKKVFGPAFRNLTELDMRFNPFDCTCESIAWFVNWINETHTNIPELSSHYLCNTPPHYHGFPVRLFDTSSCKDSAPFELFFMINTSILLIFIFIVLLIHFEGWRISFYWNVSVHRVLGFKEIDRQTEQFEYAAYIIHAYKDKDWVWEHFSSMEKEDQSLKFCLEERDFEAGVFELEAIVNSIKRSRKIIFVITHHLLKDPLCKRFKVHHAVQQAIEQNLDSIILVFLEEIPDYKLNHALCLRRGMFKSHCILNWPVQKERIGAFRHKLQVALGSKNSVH

[1] = biological target: the molecule itself; assay: co-IP of differently tagged IRGM, HEK293T cells
Rubicon = biological target: T5, Rubicon (UniProt Q92622 1-972, limits assumed); assay: co-immunoprecipitation, HEK293T cells expressing GFP-IRGM
T5 sequence (looked up): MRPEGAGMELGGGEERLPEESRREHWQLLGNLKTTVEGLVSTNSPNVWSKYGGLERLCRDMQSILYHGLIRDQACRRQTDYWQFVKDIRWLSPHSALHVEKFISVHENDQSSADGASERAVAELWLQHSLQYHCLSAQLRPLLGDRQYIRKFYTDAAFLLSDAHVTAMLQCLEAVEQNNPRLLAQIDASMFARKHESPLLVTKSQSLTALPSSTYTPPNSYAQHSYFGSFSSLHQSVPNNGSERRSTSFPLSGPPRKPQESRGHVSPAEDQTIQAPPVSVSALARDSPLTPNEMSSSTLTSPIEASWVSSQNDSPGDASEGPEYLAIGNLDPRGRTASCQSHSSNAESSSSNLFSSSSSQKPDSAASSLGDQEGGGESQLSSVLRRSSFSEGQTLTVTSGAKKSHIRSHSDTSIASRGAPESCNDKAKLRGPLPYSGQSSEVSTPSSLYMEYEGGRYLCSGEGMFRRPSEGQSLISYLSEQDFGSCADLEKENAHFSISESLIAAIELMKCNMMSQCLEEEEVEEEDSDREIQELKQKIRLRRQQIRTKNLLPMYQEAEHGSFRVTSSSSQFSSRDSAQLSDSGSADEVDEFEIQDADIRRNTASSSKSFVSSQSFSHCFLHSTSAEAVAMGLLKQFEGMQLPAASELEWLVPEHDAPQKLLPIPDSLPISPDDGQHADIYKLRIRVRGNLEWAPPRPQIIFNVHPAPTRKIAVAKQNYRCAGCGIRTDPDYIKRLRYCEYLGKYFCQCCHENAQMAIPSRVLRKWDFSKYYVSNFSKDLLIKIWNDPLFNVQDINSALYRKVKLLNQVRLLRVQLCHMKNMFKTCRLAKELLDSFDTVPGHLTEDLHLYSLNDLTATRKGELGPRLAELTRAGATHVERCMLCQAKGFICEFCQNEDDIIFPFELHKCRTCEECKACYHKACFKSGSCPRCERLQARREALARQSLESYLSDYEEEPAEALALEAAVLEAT

TLR4 = biological target: T6, TLR4 (UniProt O00206 24-839, limits assumed); assay: co-immunoprecipitation with anti-Flag (Flag-IRGM, tagged TLR4)
T6 construct: also called GFP-TLR4; YFP-TLR4 (Addgene Plasmid 13018)
T6 sequence (O00206 24-839 limits assumed): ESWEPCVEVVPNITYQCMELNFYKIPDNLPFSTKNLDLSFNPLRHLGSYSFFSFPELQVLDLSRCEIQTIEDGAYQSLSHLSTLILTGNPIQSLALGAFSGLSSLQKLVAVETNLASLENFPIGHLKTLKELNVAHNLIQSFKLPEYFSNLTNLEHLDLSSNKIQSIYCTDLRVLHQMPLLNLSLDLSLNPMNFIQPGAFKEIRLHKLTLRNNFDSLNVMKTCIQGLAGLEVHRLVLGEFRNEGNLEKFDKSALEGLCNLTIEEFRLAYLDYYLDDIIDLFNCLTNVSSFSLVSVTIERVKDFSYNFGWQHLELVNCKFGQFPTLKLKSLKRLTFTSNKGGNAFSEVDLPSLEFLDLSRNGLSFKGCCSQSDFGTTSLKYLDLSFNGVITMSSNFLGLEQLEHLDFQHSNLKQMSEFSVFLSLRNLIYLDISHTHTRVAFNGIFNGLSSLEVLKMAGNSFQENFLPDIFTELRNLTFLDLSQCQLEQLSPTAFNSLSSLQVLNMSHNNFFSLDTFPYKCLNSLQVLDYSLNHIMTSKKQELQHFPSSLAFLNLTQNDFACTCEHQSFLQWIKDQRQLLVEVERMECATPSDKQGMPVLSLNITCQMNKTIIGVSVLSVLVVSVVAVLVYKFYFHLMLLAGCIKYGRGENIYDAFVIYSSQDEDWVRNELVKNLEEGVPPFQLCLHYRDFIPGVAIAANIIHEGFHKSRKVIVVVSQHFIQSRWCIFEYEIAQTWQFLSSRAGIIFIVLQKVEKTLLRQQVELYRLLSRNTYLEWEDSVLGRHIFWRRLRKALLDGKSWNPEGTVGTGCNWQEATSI

T1 sequence (Q6ZNE5 whole entry): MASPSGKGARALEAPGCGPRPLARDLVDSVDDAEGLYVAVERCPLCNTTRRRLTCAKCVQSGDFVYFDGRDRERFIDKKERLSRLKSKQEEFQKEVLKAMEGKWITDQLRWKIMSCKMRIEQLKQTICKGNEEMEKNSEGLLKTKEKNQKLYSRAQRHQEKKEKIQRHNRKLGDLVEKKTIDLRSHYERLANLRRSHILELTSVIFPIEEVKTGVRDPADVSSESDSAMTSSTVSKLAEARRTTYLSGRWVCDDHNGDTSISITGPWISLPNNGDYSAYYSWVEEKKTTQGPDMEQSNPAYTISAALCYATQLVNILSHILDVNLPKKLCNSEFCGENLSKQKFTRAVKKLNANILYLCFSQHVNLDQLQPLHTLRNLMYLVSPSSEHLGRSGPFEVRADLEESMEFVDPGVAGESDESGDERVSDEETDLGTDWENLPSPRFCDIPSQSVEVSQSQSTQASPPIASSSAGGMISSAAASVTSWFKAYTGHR
T2 sequence (Q14457 whole entry): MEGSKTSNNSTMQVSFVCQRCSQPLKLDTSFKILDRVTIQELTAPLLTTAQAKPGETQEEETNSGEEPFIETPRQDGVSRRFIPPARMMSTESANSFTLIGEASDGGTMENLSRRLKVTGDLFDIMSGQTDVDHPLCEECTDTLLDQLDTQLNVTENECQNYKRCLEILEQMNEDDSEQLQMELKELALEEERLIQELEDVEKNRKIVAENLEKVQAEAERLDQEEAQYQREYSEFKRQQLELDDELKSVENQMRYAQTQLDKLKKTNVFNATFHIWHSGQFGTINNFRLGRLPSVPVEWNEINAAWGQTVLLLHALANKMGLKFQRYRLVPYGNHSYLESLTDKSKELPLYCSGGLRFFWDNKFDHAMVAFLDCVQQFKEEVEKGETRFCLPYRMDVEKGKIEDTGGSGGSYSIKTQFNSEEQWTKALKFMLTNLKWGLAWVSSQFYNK

binding result (ATG14L): binds
binding result (Beclin 1): binds
binding result (NOD2 (full length)): binds
binding result (TLR3): binds
binding result (Rubicon): no binding
binding result (TLR4): no binding
B1: IRGM (human IRGM, isoform d) (other, UniProt A1A4Y4-4 1-202, looked up)
chain: MEAMNVEKASADGNLPEVISNIKETLKIVSRTPVNITMAGDSGNGMSTFISALRNTGHEGKASPPTELVKATQRCASYFSSHFSNVVLWDLPGTGSATTTLENYLMEMQFNRYDFIMVASAQFSMNHVMLAKTAEDMGKKFYIVWTKLDMDLSTGALPEVQLLQIRENVLENLQKERLACHEKYLKSTPENSTRPRNINLCS
notes: Stood in cell lysates as GFP-, Flag- or V5-tagged protein or as the endogenous protein, depending on the experiment; Isoform d is said to be used in all experiments; also called GFP-IRGM; GFP-IRGMd
binding result [1]: binds
